Measured values taken from US20120129768A1.

Molecular target: Glucagon-like peptide-1 receptor (GLP1R)
Test: cell-based or functional assay

Liraglutide (peptide), sequence (peptide): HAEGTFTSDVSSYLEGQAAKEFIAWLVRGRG

Maximum reaction rate (%): 96.8%
Substance: Liraglutide (peptide)
